Drawing on the RNAGym collection of RNA variant scans (doi:10.7554/elife.90254), this text covers self-cleavage for 167 variants.

First the molecules themselves.
B1: LINE1-mini (parent)
chain: GGCAGAGCUCAACACAGCGUGGCAAAGUGGCUGUGGCUAGACUGCC

This data set covers variants of B1. The experiment in a line: self-cleavage, relative activity (ratio to wild type); higher = more cleavage; in vitro, sequencing; the parent is a self-cleaving ribozyme.
As to U38A G40A, the self-cleavage is 0.17.

For U38A G40U, the self-cleavage is 0.18.

With U38A G40C, the self-cleavage was 0.09.

As for C37A A39U, the self-cleavage turned out to be 0.22.

Consider C37A A39G, for which the self-cleavage stood at 0.05.

As to C37A A39C, the self-cleavage is 0.12.

Take U38A A39U: the self-cleavage is 0.85.

For the variant U38A A39G, the self-cleavage is 0.25.

Consider U38A A39C, for which the self-cleavage was found to be 0.49.

For G40C C45G, the self-cleavage was found to be 0.05.

Regarding G40C C45A, the self-cleavage was 0.09.

In the case of G40C C45U, the self-cleavage is 0.1.

Consider C37G U38A, for which the self-cleavage is 0.03.

On to C37G U38C, for which the self-cleavage turned out to be 0.04.

Consider C37G U38G, for which the self-cleavage stood at 0.01.

With A41G C45U, the self-cleavage amounted to 0.49.

For A41G C45A, the self-cleavage was found to be 0.09.

With A41G C45G, the self-cleavage is 0.05.

As to C37U U38G, the self-cleavage was 0.03.

For C37U U38C, the self-cleavage came to 0.06.

Consider C37U U38A, for which the self-cleavage worked out at 0.04.

As to A39U C46A, the self-cleavage turned out to be 0.75.

As for A39U C46U, the self-cleavage came out at 0.46.

In the case of A39U C46G, the self-cleavage was found to be 0.5.

As to U38G C45A, the self-cleavage was 0.04.

In the case of U38G C45U, the self-cleavage was 0.05.

Consider U38G C45G, for which the self-cleavage stood at 0.05.

For the variant C37U U43C, the self-cleavage came out at 0.06.

As for C37U U43A, the self-cleavage is 0.11.

C37U U43G: the self-cleavage is 0.11.

Take A39U G44U: the self-cleavage is 0.12.

In the case of A39U G44C, the self-cleavage was determined as 0.09.

For A39U G44A, the self-cleavage came out at 0.18.

In the case of A39C C45G, the self-cleavage was found to be 0.12.

In the case of A39C C45A, the self-cleavage was determined as 0.14.

For A39C C45U, the self-cleavage worked out at 0.24.

U38A C45G: the self-cleavage was 0.26.

Take U38A C45A: the self-cleavage stood at 0.2.

Turning to U38A C45U, the self-cleavage is 0.59.

Turning to G40A G44C, the self-cleavage was found to be 0.08.

For G40A G44A, the self-cleavage worked out at 0.19.

Consider G40A G44U, for which the self-cleavage was found to be 0.08.

Consider C37G C42G, for which the self-cleavage is 0.02.

C37G C42A: the self-cleavage worked out at 0.09.

In the case of C37G C42U, the self-cleavage was determined as 0.02.

In the case of U38A C42U, the self-cleavage stood at 0.21.

For the variant U38A C42G, the self-cleavage came to 0.07.

For the variant U38A C42A, the self-cleavage amounted to 0.1.

Regarding G40C A41G, the self-cleavage amounted to 0.07.

Regarding G40C A41U, the self-cleavage was determined as 0.14.

Consider G40C A41C, for which the self-cleavage came out at 0.09.

Turning to U38C C42A, the self-cleavage was 0.07.

With U38C C42G, the self-cleavage amounted to 0.15.

As for U38C C42U, the self-cleavage stood at 0.07.

As to C37G C46A, the self-cleavage worked out at 0.02.

Take C37G C46U: the self-cleavage stood at 0.04.

Turning to C37G C46G, the self-cleavage is 0.17.

In the case of A41U C42A, the self-cleavage is 0.09.

On to A41U C42G, for which the self-cleavage is 0.07.

On to A41U C42U, for which the self-cleavage was 0.09.

As to A39U A41G, the self-cleavage was determined as 0.14.

Regarding A39U A41U, the self-cleavage turned out to be 0.67.

Take A39U A41C: the self-cleavage amounted to 0.13.

On to C37G C45A, for which the self-cleavage is 0.03.

Turning to C37G C45G, the self-cleavage amounted to 0.08.

Take C37G C45U: the self-cleavage was found to be 0.03.

Turning to A39G A41G, the self-cleavage amounted to 0.01.

Consider A39G A41C, for which the self-cleavage was 0.03.

Consider A39G A41U, for which the self-cleavage came out at 0.07.

As for U38C, the self-cleavage is 0.6.

On to U38A, for which the self-cleavage amounted to 0.47.

As for U38G, the self-cleavage is 0.03.

On to C37U G44C, for which the self-cleavage amounted to 0.05.

On to C37U G44A, for which the self-cleavage turned out to be 0.1.

For C37U G44U, the self-cleavage is 0.25.

Take U38C C45A: the self-cleavage amounted to 0.35.

As to U38C C45U, the self-cleavage is 1.38.

U38C C45G: the self-cleavage stood at 0.47.

With C37U C46A, the self-cleavage turned out to be 0.07.

In the case of C37U C46G, the self-cleavage was determined as 0.04.

With C37U C46U, the self-cleavage was 0.06.

As for A41C C45U, the self-cleavage turned out to be 0.1.

Consider A41C C45G, for which the self-cleavage was 0.1.

With A41C C45A, the self-cleavage worked out at 0.11.

In the case of C37U C45A, the self-cleavage was 0.06.

Regarding C37U C45U, the self-cleavage was 0.04.

On to C37U C45G, for which the self-cleavage was determined as 0.08.

On to A41G C42U, for which the self-cleavage is 0.11.

For A41G C42A, the self-cleavage came to 0.12.

Consider A41G C42G, for which the self-cleavage was found to be 0.06.

With U38C U43A, the self-cleavage turned out to be 0.04.

As to U38C U43G, the self-cleavage turned out to be 0.07.

U38C U43C: the self-cleavage came out at 0.11.

On to C37U C42U, for which the self-cleavage amounted to 0.1.

Take C37U C42G: the self-cleavage stood at 0.03.

With C37U C42A, the self-cleavage came to 0.12.

Regarding A39C G40C, the self-cleavage came to 0.07.

Take A39C G40A: the self-cleavage is 0.08.

For the variant A39C G40U, the self-cleavage turned out to be 0.11.

Turning to G40U C46U, the self-cleavage turned out to be 0.11.

Turning to G40U C46A, the self-cleavage amounted to 0.12.

Turning to G40U C46G, the self-cleavage was 0.06.

On to U38C G44C, for which the self-cleavage turned out to be 0.32.

As to U38C G44A, the self-cleavage came out at 0.3.

Regarding U38C G44U, the self-cleavage was 0.27.

Consider C37A U38G, for which the self-cleavage is 0.03.

On to C37A U38C, for which the self-cleavage came to 0.03.

In the case of C37A U38A, the self-cleavage is 0.04.

Consider G40A C42A, for which the self-cleavage worked out at 0.1.

Turning to G40A C42G, the self-cleavage came to 0.09.

For the variant G40A C42U, the self-cleavage stood at 0.09.

In the case of G40C U43G, the self-cleavage came to 0.41.

G40C U43A: the self-cleavage was 0.06.

G40C U43C: the self-cleavage came out at 0.07.

For C37G U43C, the self-cleavage came out at 0.09.

On to C37G U43A, for which the self-cleavage worked out at 0.07.

In the case of C37G U43G, the self-cleavage stood at 0.05.

For A41G C46A, the self-cleavage is 0.22.

A41G C46G: the self-cleavage is 0.08.

Regarding A41G C46U, the self-cleavage was found to be 0.16.

In the case of A39U, the self-cleavage turned out to be 0.8.

For the variant A39C, the self-cleavage is 0.26.

Turning to A39G, the self-cleavage was determined as 0.1.

Turning to G40U A41G, the self-cleavage turned out to be 0.09.

Consider G40U A41U, for which the self-cleavage was 0.37.

As for G40U A41C, the self-cleavage worked out at 0.2.

In the case of A39U U43C, the self-cleavage turned out to be 0.06.

For the variant A39U U43A, the self-cleavage turned out to be 0.06.

A39U U43G: the self-cleavage was 0.02.

Take G40A U43C: the self-cleavage worked out at 0.08.

On to G40A U43G, for which the self-cleavage amounted to 0.09.

Take G40A U43A: the self-cleavage turned out to be 0.06.

In the case of A39G C46U, the self-cleavage was 0.07.

In the case of A39G C46G, the self-cleavage was determined as 0.08.

Turning to A39G C46A, the self-cleavage came to 0.14.

In the case of G36U G40A, the self-cleavage amounted to 0.13.

For the variant G36U G40C, the self-cleavage was found to be 0.09.

On to G36U G40U, for which the self-cleavage is 0.19.

For the variant A39G G44A, the self-cleavage was 0.16.

A39G G44C: the self-cleavage came out at 0.09.

For the variant A39G G44U, the self-cleavage stood at 0.22.

As to A39U C45U, the self-cleavage amounted to 0.85.

Turning to A39U C45A, the self-cleavage came out at 0.18.

For A39U C45G, the self-cleavage was 0.24.

Consider U38G U43A, for which the self-cleavage amounted to 0.02.

Take U38G U43G: the self-cleavage came to 0.02.

For U38G U43C, the self-cleavage stood at 0.05.

In the case of A39U C42U, the self-cleavage turned out to be 0.23.

Consider A39U C42G, for which the self-cleavage came out at 0.03.

As for A39U C42A, the self-cleavage was 0.1.

As for U38A U43C, the self-cleavage stood at 0.13.

As to U38A U43A, the self-cleavage stood at 0.03.

Turning to U38G C46A, the self-cleavage stood at 0.02.

With U38G C46G, the self-cleavage is 0.02.

For U38G C46U, the self-cleavage is 0.04.

As for C37A C45U, the self-cleavage amounted to 0.08.

For the variant C37A C45G, the self-cleavage turned out to be 0.17.

For C37A C45A, the self-cleavage was 0.19.

Take A41C G44C: the self-cleavage turned out to be 0.08.

Take A41C G44U: the self-cleavage is 0.11.

On to A41C G44A, for which the self-cleavage is 0.05.

Regarding C37U A39G, the self-cleavage is 0.02.

Regarding C37U A39U, the self-cleavage was found to be 0.04.

For C37U A39C, the self-cleavage was 0.14.

For A41C C42G, the self-cleavage was 0.07.

Consider A41C C42A, for which the self-cleavage turned out to be 0.05.

Regarding A41C C42U, the self-cleavage stood at 0.05.
